The values below come from patent publication US20250376533A1 (FUTUREGEN BIOPHARMACEUTICAL BEIJING, published 2025).

Assay [1] concerns the target T1, human PD-L1 antigen (ACROBiosystems) (human, UniProt Q9NZQ7 19-238).
T1 construct: Bought antigen coated on ELISA plates
In words: ELISA, coated antigen. As for the experimental part:
(§1) The binding ability of monoclonal antibody to human PD-L1, as well as the species specificity, was detected using an enzyme-linked immunosorbent assay (ELISA). The specific method is as follows: human PD-L1, cynomolgus PD-L1, rat PD-L1, and mouse PD-L1 antigens (all purchased from ACROBiosystems) were coated with 1 μg/mL carbonate buffer (pH=9.6) in an ELISA plate at 100 μL per well, followed by incubation at 4° C. overnight. The wells were washed 5 times with PBST. 300 μL/well of PBST containing 1% BSA was added to block the wells, and the plate was incubated at room temperature for 1 hour. The wells were washed 5 times with PBST. […] The wells were washed 5 times with PBST. […] The wells were washed 5 times with PBST. Colorimetric substrate TMB was added at 100 μL per well and allowed to develop color at room temperature for 10 minutes, followed by the addition of 1 M sulfuric acid to terminate the reaction. The OD_{450 nm} was read on a microplate reader to analyze the results, and the EC₅₀ was calculated using a 4-parameter fit binding curve.
(§2) These monoclonal antibodies are not able to bind to rat PD-L1 or mouse PD-L1.

Assay [2] concerns the target T2, cynomolgus PD-L1 antigen (ACROBiosystems) (cynomolgus, UniProt G7PSE7 19-238).
T2 construct: Bought antigen coated on ELISA plates; construct not described
Description: ELISA, coated antigen. On the procedure: as §1, §2
Background: An ELISA detects its analyte on a solid surface through an enzyme-linked reagent.

Assay [3] deals with T3, rat PD-L1 antigen (ACROBiosystems) (rat, UniProt D4AE25 19-239).
T3 construct: Bought antigen coated on ELISA plates; construct not described
Description: ELISA, coated antigen. As for the experimental part:
as §1, §2

Assay [4] concerns the target T4, mouse PD-L1 antigen (ACROBiosystems) (mouse, UniProt Q9EP73 19-239).
T4 construct: Bought antigen coated on ELISA plates; construct not described
Description: ELISA, coated antigen. On the procedure:
as §1, §2

Assay [5] deals with T1, human PD-L1 antigen (ACROBiosystems). In words: BLI (Gator), antibody captured on PA probe, human PD-L1 in solution. On the procedure:
The interaction between monoclonal antibodies and antigens was detected using Gator, a label-free biomolecular interaction analyzer based on the principle of biolayer interferometry (BLI). The specific method is as follows: monoclonal antibody was diluted to 50 nM and added to a probe plate using a PA probe, allowing the monoclonal antibody to be captured by the PA probe. Human PD-L1, an antigen serially diluted starting from 200 nM, was then added for interaction with the […] captured by the PA probe. The interaction was analyzed by detecting the signal change of the reflected interference spectrum on the surface of the probe, and the binding kinetic constants of the antibody were finally calculated.

T2 sequence (G7PSE7 entry or part of it): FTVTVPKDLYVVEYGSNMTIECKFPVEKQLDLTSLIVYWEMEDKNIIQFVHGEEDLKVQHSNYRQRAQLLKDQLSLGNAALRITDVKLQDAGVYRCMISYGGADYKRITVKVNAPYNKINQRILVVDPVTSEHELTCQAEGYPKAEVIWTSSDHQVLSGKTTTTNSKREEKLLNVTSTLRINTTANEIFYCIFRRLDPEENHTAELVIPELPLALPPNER
T3 sequence (D4AE25 entry or part of it limits assumed): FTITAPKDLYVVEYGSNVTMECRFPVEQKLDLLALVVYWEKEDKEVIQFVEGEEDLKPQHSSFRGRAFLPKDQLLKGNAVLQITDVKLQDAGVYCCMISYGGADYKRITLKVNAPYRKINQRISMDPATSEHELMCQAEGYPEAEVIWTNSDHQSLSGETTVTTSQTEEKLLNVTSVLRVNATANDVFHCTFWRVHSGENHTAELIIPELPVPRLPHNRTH
T1 sequence (Q9NZQ7 19-238 limits assumed): as the sequence (G7PSE7 entry or part of it) above, with T33A, S34A, N62S, Q68R, R82Q, L173F, A185T, I192T, L215H counted along it
T4 sequence (Q9EP73 19-239 limits assumed): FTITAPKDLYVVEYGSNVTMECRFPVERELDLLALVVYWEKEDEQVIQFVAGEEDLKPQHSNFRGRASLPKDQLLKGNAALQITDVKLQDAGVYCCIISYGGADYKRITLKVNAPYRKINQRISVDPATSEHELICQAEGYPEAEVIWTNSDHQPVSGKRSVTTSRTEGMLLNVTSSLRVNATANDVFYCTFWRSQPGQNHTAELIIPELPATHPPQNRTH

B1: anti-PD-L1 monoclonal antibody 1102 (antibody, human IgG1, V domains shown)
VH: EVQLVESGGGLVQPGGSLRLSCAASGFTFDYYTQCWFRQAPGKEREWVSCISSSEGSTYYADSVKGRFTISRDNAKNTVYLQMNSLRAEDTAVYYCAARKGGPLTIENFFDYWGQGTQVTVSS
In general, EC50 refers to the concentration at which the effect is half-maximal. The low end stands for higher potency in that assay, the high end for lower potency in that assay. As usually defined, the Kd is the concentration at which binding is half-saturated. Read a high Kd as weaker binding. What is called koff is a measure of how fast the partners let go of each other. Lower therefore signals slow dissociation. Broadly, the kon is the rate constant with which the complex forms. In the case of B1, it took 0.013 nM to reach a half-maximal effect in assay [1] (EC50). For the same molecule, in assay [2], the EC50 was determined as 0.013 nM. The binding result in assay [3] was “no binding”. In addition, the binding result in assay [4] is “no binding”. In assay [5], this molecule came in with an equilibrium dissociation constant (Kd) of 4.41 nM, a koff of 0.00451 s⁻¹ and a kon of 1.02e+06 M⁻¹ s⁻¹.

B2: anti-PD-L1 monoclonal antibody 1541 (antibody, human IgG1, V domains shown)
VH: EVQLVESGGGLVQPGGSLRLSCAASGFTFDYYTQCWFRQAPGKEREWVSCISSSEGSTYYADSVKGRFTISRDNSKNTVYLQMNSLKTEDTAVYYCAARKGGPLTIENFFDYWGQGTQVTVSS
With B2, the figures for the half-maximal effective concentration (EC50) in assay [1] and in assay [2] were 0.014 nM and 0.018 nM, respectively. For the same molecule, the binding result in assay [3] and in assay [4] was “no binding” throughout. In assay [5], this molecule displayed a dissociation constant (Kd) of 4.38 nM. This molecule returned an off-rate (koff) in assay [5] of 0.00293 s⁻¹. The kon in assay [5] came out at 670000 M⁻¹ s⁻¹.

B3: anti-PD-L1 monoclonal antibody 1031 (antibody, human IgG1, V domains shown)
VH: EVQLVESGGGLVQPGGSLRLSCAASGFTFEYYTKCWFRQAPGKEREWVSCISTSEGSTYYADSVKGRFTISRDNAKNTVYLQMNSLRAEDTAVYYCAARKGGPLTIENFFDYWGQGTQVTVSS
B3 displayed an EC50 in assay [1] of 0.02 nM. Besides, the EC50 in assay [2] turned out to be 0.018 nM. For the same molecule, in assay [3], the binding result is “no binding”. For the same molecule, the binding result in assay [4] was “no binding”. In assay [5], this molecule displayed a Kd of 8.3 nM, a dissociation rate constant (koff) of 0.00913 s⁻¹ and a kon of 1.1e+06 M⁻¹ s⁻¹.

B4: anti-PD-L1 monoclonal antibody 1029 (antibody, human IgG1, V domains shown)
VH: EVQLVESGGGLVQPGGSLRLSCAASGFTLDYYSKCWFRQAPGKEREWVSCIGSSDGSTYYADSVKGRFTISRDNAKNTVYLQMNSLRAEDTAVYYCAARNGGPLTIENFFDYWGQGTQVTVSS
Consider B4, for which the 50% effective concentration (EC50) in assay [1] was found to be 0.012 nM. In assay [2], the concentration giving a half-maximal response (EC50) is 0.013 nM. The binding result in assay [3] was “no binding”. Besides, the binding result in assay [4] is given as “no binding”. In assay [5], this molecule registered a Kd of 4.37 nM, a koff of 0.00422 s⁻¹ and an on-rate constant (kon) of 967000 M⁻¹ s⁻¹.
